Laboratory results as given in US20180305460A1 (Teva, published 2018).
Read-outs that look alike come from different tables or passages of the source. One block for each binder: values may come before it.

Columns and labels:
Assay in all cases: SPR (Biacore), antibody from supernatant captured on Protein A, human CD38 injected, 1:1 fit
Human CD38 [1] = target: T1, Human CD38 (human, UniProt P28907 43-300)
Experimental: (§1) The capacity of anti-CD38 antibodies and anti-CD38-attenuated IFN fusion proteins to bind to human CD38 were measured using unpurified transfected cell supernatant prepared 7:1 with Non Specific Binding Reducer (GE Healthcare, Piscataway, N.J.). […] FC2 (or FC4) was used as a reference throughout the experiments. The experiments were run at 37° C. in HBS-P+ buffer (0.01 M HEPES, 0.15 M NaCl, 0.005% v/v Surfactant P20, pH 7.4). At a flow rate of 20 l/min, both flow cells were regenerated with 10 μL 50 mM sodium hydroxide before 40 μL supernatant containing the protein was passed over FC1 (or FC3) only. 301 μL of CD38 (10 g/mL in running buffer) or 30 μL running buffer was injected over FC1 and FC2 with a 5 minute dissociation time. Both surfaces were regenerated twice with sodium hydroxide. Results were generated using the BIAevaluation software provided with the machine. Microsoft Excel was used for calculations. BIAevaluation software automatically subtracted the reference sensorgram giving a trace of FC2-1 (or FC4-3) for each sample. A double reference was performed for each antibody tested by subtracting the sensorgram with a CD38 injection from the sensorgram with a blank running buffer injection. […] BIAevalution was used to fit the sensorgram using a Langmuir 1:1 equation in order to generate an equilibrium association constant (KD)

Human CD38 [2] = target: T1, Human CD38; remark: listed apart in the source
Experimental: as §1

Human CD38 [3] = target: T1, Human CD38; remark: listed apart in the source
Experimental: as §1

Human CD38 [4] = target: T1, Human CD38; remark: listed apart in the source
Experimental: as §1

Human CD38 [5] = target: T1, Human CD38; remark: listed apart in the source
Experimental: as §1

Kd (Human CD38 [1]): 26.3 nM
B1: X02.9 (antibody, human IgG4 S228P)
heavy: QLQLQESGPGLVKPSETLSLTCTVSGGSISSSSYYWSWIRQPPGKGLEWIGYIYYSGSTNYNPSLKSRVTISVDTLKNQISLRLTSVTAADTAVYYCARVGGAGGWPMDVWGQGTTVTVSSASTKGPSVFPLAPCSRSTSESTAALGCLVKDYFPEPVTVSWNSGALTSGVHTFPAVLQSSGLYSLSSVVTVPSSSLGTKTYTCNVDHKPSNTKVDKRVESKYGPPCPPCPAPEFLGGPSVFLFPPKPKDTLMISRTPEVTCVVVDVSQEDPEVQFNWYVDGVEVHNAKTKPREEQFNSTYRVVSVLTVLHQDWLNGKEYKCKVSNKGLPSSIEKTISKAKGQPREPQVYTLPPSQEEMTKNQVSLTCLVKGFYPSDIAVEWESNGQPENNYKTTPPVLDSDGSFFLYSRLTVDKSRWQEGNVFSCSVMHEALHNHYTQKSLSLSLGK
VL: QAVLTQPASLSASPGESARLTCTLPSDINVRYYNIYWYQQKPGSPPRYLLYYYSDSHKGQGSGVPSRFSGSKDVSTNSGILLISGLQSEDEADYYCMTWSSNGSGVFGGGTQLTVLG
notes: IgG4 S228P; VH H40P relative to X02.1

Kd (Human CD38 [2]): 0.00348 nM
B2: X02.94 (antibody, V domains shown)
VH: QLQLQESGPGLVKPSETLSLTCTVSGGSISSSSYYWSWIRQHPGKGLEWIGYIYYSGSTNYNPSLKSRVTISVDTLKNQISLRLTSVTAADTAVYYCARVGGAGGWPMDVWGQGTTVTVSS
VL: QAVLTQPASLSASPGESARLTCTLPSDINVRYYNIYWYQQKPGSPPRYLLYYYSDSHKGQGSGVPSRFSGSKDVSTNSGILLISGLQSEDEADYYCLTWSSNGSGVFGGGTQLTVLG
notes: IgG4 S228P with the X02.1 VH; VL M89L relative to A02.1

Kd (Human CD38 [2]): 0.0256 nM
B3: X02.93 (antibody, V domains shown)
VH: QLQLQESGPGLVKPSETLSLTCTVSGGSISSSSYYWSWIRQHPGKGLEWIGYIYYSGSTNYNPSLKSRVTISVDTLKNQISLRLTSVTAADTAVYYCARVGGAGGWPMDVWGQGTTVTVSS
VL: QAVLTQPASLSASPGESARLTCTLPSDINVRYYNIYWYQQKPGSPPRYLLYYYSDSHKGQGSGVPSRFSGSKDVSTNSGILLISGLQSEDEADYYCITWSSNGSGVFGGGTQLTVLG
notes: IgG4 S228P with the X02.1 VH; VL M89I relative to A02.1

Kd (Human CD38 [1]): 20.7 nM
B4: X02.110 (antibody, human IgG4 S228P, V domains shown)
VH: QLQLQESGPGLVKPSETLSLTCTVSGGSISSSSYYWSWIRQHPGKGLEWIGYIYYSGSTNYNPSLKSRVTISVDTLKNQISLKLTSVTAADTAVYYCARVGGAGGWPMDVWGQGTTVTVSS
VL: QAVLTQPASLSASPGESARLTCTLPSDINVRYYNIYWYQQKPGSPPRYLLYYYSDSHKGQGSGVPSRFSGSKDVSTNSGILLISGLQSEDEADYYCMTWSSNGSGVFGGGTQLTVLG
notes: IgG4 S228P; VH R81K relative to X02.1

Kd (Human CD38 [3]): 33.1 nM
B5: X02.105 (antibody, V domains shown)
VH: QLQLQESGPGLVKPSETLSLTCTVSGGSISSSSYYWSWIRQHPGKGLEWIGYIYYSGSTNYNPSLKSRVTISVDTLKNQISLRLTSVTAADTAVYYCARVGGAGGWPMDVWGQGTTVTVSS
VL: QAVLTQPASLSASPGESARLTCTLPSDINVRYYNIYWYQQKPGSPPRYLLYYYSDSHKGQGSGVPSRFSGSKDVSTNSGILLISGLQSEDEADYYCMTWPSNGSGVFGGGTQLTVLG
notes: IgG4 S228P with the X02.1 VH; VL S92P relative to A02.1

Kd (Human CD38 [3]): 0.00321 nM
B6: X02.99 (antibody, V domains shown)
VH: QLQLQESGPGLVKPSETLSLTCTVSGGSISSSSYYWSWIRQHPGKGLEWIGYIYYSGSTNYNPSLKSRVTISVDTLKNQISLRLTSVTAADTAVYYCARVGGAGGWPMDVWGQGTTVTVSS
VL: QAVLTQPASLSASPGESARLTCTLPSDINVRSYNIYWYQQKPGSPPRYLLYYYSDSHKGQGSGVPSRFSGSKDVSTNSGILLISGLQSEDEADYYCMTWSSNGSGVFGGGTQLTVLG
notes: IgG4 S228P with the X02.1 VH; VL Y30S relative to A02.1

Kd (Human CD38 [2]): 1.44 nM
B7: X02.80 (antibody, V domains shown)
VH: QLQLQESGPGLVKPSETLSLTCTVSGGSISSSSYYWSWIRQHPGKGLEWIGYIYYSGSTNYNPSLKSRVTISVDTLKNQISLRLTSVTAADTAVYYCARVGGAGGWPMDVWGQGTTVTVSS
VL: QAVLTQPASLSASPGESARLTCTLPSDINVRYYNIYWYQQKPGSPPRYLLYYYSDSHKGQGSGVPSRFSGSKDVSTNSGILLISGLQSEDEADYYCMTWSSQGSGVFGGGTQLTVLG
notes: IgG4 S228P with the X02.1 VH; VL N94Q relative to A02.1

Kd (Human CD38 [4]): 4.28 nM
B8: X02.86 (antibody, V domains shown)
VH: QLQLQESGPGLVKPSETLSLTCTVSGGSISSSSYYWSWIRQHPGKGLEWIGYIYYSGSTNYNPSLKSRVTISVDTLKNQISLRLTSVTAADTAVYYCARVGGAGGWPMDVWGQGTTVTVSS
VL: QAVLTQPASLSASPGESARLTCTLPSGINVRYYNIYWYQQKPGSPPRYLLYYYSDSHKGQGSGVPSRFSGSKDVSTNSGILLISGLQSEDEADYYCMTWSSNGSGVFGGGTQLTVLG
notes: IgG4 S228P with the X02.1 VH; VL D(27A)G relative to A02.1

Kd (Human CD38 [3]): 10 nM
B9: X02.104 (antibody, V domains shown)
VH: QLQLQESGPGLVKPSETLSLTCTVSGGSISSSSYYWSWIRQHPGKGLEWIGYIYYSGSTNYNPSLKSRVTISVDTLKNQISLRLTSVTAADTAVYYCARVGGAGGWPMDVWGQGTTVTVSS
VL: QAVLTQPASLSASPGESARLTCTLPSDINVRYYNIYWYQQKPGSPPRYLLYYYSDSHKGQGSGVPSRFSGSKDVSTNSGILLISGLQSEDEADYYCMIWSSNGSGVFGGGTQLTVLG
notes: IgG4 S228P with the X02.1 VH; VL T90I relative to A02.1

Kd (Human CD38 [3]): 0.0044 nM
B10: X02.95 (antibody)
heavy: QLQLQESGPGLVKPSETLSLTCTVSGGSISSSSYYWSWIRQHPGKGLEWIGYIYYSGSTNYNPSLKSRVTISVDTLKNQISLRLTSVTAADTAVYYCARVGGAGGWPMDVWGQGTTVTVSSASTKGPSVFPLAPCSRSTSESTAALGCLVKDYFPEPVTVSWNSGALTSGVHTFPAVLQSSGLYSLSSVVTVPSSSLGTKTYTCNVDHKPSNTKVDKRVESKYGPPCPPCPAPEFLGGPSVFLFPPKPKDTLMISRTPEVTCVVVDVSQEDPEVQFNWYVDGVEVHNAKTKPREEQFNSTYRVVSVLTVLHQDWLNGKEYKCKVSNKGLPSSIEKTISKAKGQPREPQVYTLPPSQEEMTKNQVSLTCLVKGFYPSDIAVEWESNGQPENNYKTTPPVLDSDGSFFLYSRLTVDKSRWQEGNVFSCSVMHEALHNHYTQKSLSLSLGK
VL: QPVLTQPASLSASPGESARLTCTLPSDINVRYYNIYWYQQKPGSPPRYLLYYYSDSHKGQGSGVPSRFSGSKDVSTNSGILLISGLQSEDEADYYCMTWSSNGSGVFGGGTQLTVLG
notes: IgG4 S228P with the X02.1 VH; VL A2P relative to A02.1

Kd (Human CD38 [5]): 0.0106 nM
B11: X02.68 (antibody, human IgG4 S228P, V domains shown)
VH: QLQLQESGPGLVKPSETLSLTCKVSGGSISSSSYYWSWIRQHPGKGLEWIGYIYYSGSTNYNPSLKSRVTISVDTLKNQISLRLTSVTAADTAVYYCARVGGAGGWPMDVWGQGTTVTVSS
VL: QAVLTQPASLSASPGESARLTCTLPSDINVRYYNIYWYQQKPGSPPRYLLYYYSDSHKGQGSGVPSRFSGSKDVSTNSGILLISGLQSEDEADYYCMTWSSNGSGVFGGGTQLTVLG
notes: IgG4 S228P; VH T23K relative to X02.1

Kd (Human CD38 [3]): 44.7 nM
B12: X02.106 (antibody, V domains shown)
VH: QLQLQESGPGLVKPSETLSLTCTVSGGSISSSSYYWSWIRQHPGKGLEWIGYIYYSGSTNYNPSLKSRVTISVDTLKNQISLRLTSVTAADTAVYYCARVGGAGGWPMDVWGQGTTVTVSS
VL: QAVLTQPASLSASPGESARLTCTLPSDINVRYYNIYWYQQKPGSPPRYLLYYYSDSHKGQGSGVPSRFSGSKDVSTNSGILLISGLQSEDEADYYCMTWSSNASGVFGGGTQLTVLG
notes: IgG4 S228P with the X02.1 VH; VL G95A relative to A02.1

Kd (Human CD38 [2]): 1.99 nM
B13: X02.87 (antibody, V domains shown)
VH: QLQLQESGPGLVKPSETLSLTCTVSGGSISSSSYYWSWIRQHPGKGLEWIGYIYYSGSTNYNPSLKSRVTISVDTLKNQISLRLTSVTAADTAVYYCARVGGAGGWPMDVWGQGTTVTVSS
VL: QAVLTQPASLSASPGESARLTCTLPSDINVRYYNIYWYQQKPGSPPRYLLYYYSDSHKGQGSGVPSRFSGSKDVSTNSGILLISGLQSEDEADYYCMTWSSNGAGVFGGGTQLTVLG
notes: IgG4 S228P with the X02.1 VH; VL S96A relative to A02.1

Kd (Human CD38 [2]): 0.552 nM
B14: X02.90 (antibody, V domains shown)
VH: QLQLQESGPGLVKPSETLSLTCTVSGGSISSSSYYWSWIRQHPGKGLEWIGYIYYSGSTNYNPSLKSRVTISVDTLKNQISLRLTSVTAADTAVYYCARVGGAGGWPMDVWGQGTTVTVSS
VL: QAVLTQPASLSASPGESARLTCTLPSDINVRYYNIYWYQQKPGSPPRYLLYYYSDSHKGQGSGVPSRFSGSKDVSTNSGILLISGLQSEDEADYYCMTWSSTGSGVFGGGTQLTVLG
notes: IgG4 S228P with the X02.1 VH; VL N94T relative to A02.1

Kd (Human CD38 [1]): 26.3 nM
B15: X02.108 (antibody, human IgG4 S228P, V domains shown)
VH: QLQLQESGPGLVKPSETLSLTCTVSGGSISSSSYYWSWIRQHPGKGLEWIGYIYYSGSTNYNPSLKSRVTISVDTLKNQFSLRLTSVTAADTAVYYCARVGGAGGWPMDVWGQGTTVTVSS
VL: QAVLTQPASLSASPGESARLTCTLPSDINVRYYNIYWYQQKPGSPPRYLLYYYSDSHKGQGSGVPSRFSGSKDVSTNSGILLISGLQSEDEADYYCMTWSSNGSGVFGGGTQLTVLG
notes: IgG4 S228P; VH I78F relative to X02.1

Kd (Human CD38 [3]): 160 nM
B16: X02.100 (antibody, V domains shown)
VH: QLQLQESGPGLVKPSETLSLTCTVSGGSISSSSYYWSWIRQHPGKGLEWIGYIYYSGSTNYNPSLKSRVTISVDTLKNQISLRLTSVTAADTAVYYCARVGGAGGWPMDVWGQGTTVTVSS
VL: QAVLTQPASLSASPGESARLTCTLPSDINVRYYNIYWYQQKPGSPPRYLLYYYSDSDKGQGSGVPSRFSGSKDVSTNSGILLISGLQSEDEADYYCMTWSSNGSGVFGGGTQLTVLG
notes: IgG4 S228P with the X02.1 VH; VL H(54A)D relative to A02.1

Kd (Human CD38 [4]): 0.707 nM
B17: X02.91 (antibody, V domains shown)
VH: QLQLQESGPGLVKPSETLSLTCTVSGGSISSSSYYWSWIRQHPGKGLEWIGYIYYSGSTNYNPSLKSRVTISVDTLKNQISLRLTSVTAADTAVYYCARVGGAGGWPMDVWGQGTTVTVSS
VL: QAVLTQPASLSASPGESARLTCTLRSDINVRYYNIYWYQQKPGSPPRYLLYYYSDSHKGQGSGVPSRFSGSKDVSTNSGILLISGLQSEDEADYYCMTWSSNGSGVFGGGTQLTVLG
notes: IgG4 S228P with the X02.1 VH; VL P26R relative to A02.1

Kd (Human CD38 [3]): 0.00751 nM
B18: X02.97 (antibody)
heavy: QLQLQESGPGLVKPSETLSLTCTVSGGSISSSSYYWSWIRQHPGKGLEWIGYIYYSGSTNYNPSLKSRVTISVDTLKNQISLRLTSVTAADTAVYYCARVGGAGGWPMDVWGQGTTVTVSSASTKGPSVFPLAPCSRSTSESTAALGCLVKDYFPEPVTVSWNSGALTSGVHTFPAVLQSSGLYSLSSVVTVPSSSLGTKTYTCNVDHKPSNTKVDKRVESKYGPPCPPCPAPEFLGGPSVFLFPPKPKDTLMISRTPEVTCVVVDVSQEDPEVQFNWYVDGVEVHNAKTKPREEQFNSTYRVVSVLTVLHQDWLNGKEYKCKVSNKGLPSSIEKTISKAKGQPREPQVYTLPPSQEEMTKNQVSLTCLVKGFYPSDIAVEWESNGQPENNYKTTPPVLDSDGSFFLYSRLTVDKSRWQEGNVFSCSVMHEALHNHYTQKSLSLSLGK
VL: QAVLTQPASSSASPGESARLTCTLPSDINVRYYNIYWYQQKPGSPPRYLLYYYSDSHKGQGSGVPSRFSGSKDVSTNSGILLISGLQSEDEADYYCMTWSSNGSGVFGGGTQLTVLG
notes: IgG4 S228P with the X02.1 VH; VL L11S relative to A02.1

Kd (Human CD38 [2]): 0.267 nM
B19: X02.81 (antibody, V domains shown)
VH: QLQLQESGPGLVKPSETLSLTCTVSGGSISSSSYYWSWIRQHPGKGLEWIGYIYYSGSTNYNPSLKSRVTISVDTLKNQISLRLTSVTAADTAVYYCARVGGAGGWPMDVWGQGTTVTVSS
VL: QAVLTQPASLSASPGESARLTCTLPSDINVRYYNIYWYQQKPGSPPRYLLYYYSDSHKGQGSGVPSRFSGSKDVSTASGILLISGLQSEDEADYYCMTWSSNGSGVFGGGTQLTVLG
notes: IgG4 S228P with the X02.1 VH; VL N69A relative to A02.1

Kd (Human CD38 [1]): 20.7 nM
B20: X02.10 (antibody, human IgG4 S228P)
heavy: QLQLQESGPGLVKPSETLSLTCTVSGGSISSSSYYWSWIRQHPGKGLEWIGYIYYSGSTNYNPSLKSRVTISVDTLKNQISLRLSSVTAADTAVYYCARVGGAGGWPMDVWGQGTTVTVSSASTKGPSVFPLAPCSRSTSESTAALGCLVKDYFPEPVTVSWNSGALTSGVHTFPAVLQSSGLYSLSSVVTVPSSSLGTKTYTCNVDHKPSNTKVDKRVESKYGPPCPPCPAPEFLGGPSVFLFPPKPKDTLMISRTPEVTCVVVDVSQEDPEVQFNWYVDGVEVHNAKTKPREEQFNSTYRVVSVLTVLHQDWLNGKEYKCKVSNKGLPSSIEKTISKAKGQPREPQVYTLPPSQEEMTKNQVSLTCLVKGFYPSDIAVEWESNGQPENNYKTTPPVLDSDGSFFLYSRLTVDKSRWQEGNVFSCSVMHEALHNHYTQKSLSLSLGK
VL: QAVLTQPASLSASPGESARLTCTLPSDINVRYYNIYWYQQKPGSPPRYLLYYYSDSHKGQGSGVPSRFSGSKDVSTNSGILLISGLQSEDEADYYCMTWSSNGSGVFGGGTQLTVLG
notes: IgG4 S228P; VH T(82A)S relative to X02.1

Kd (Human CD38 [3]): 0.00584 nM
B21: X02.98 (antibody, V domains shown)
VH: QLQLQESGPGLVKPSETLSLTCTVSGGSISSSSYYWSWIRQHPGKGLEWIGYIYYSGSTNYNPSLKSRVTISVDTLKNQISLRLTSVTAADTAVYYCARVGGAGGWPMDVWGQGTTVTVSS
VL: QAVLTQPASLSASPGESARLTCTLPSDINVGYYNIYWYQQKPGSPPRYLLYYYSDSHKGQGSGVPSRFSGSKDVSTNSGILLISGLQSEDEADYYCMTWSSNGSGVFGGGTQLTVLG
notes: IgG4 S228P with the X02.1 VH; VL R29S relative to A02.1
